In patent publication US20260232759A1, “PEPTIDES THAT INHIBIT INFECTION BY SARS-COV-2, THE VIRUS THAT CAUSES COVID-19 DISEASE” (Wisconsin Alumni Research Foundation, priority 2021, published 2026):
No end group written: not given here.

Biological target: SARS-CoV-2 Spike protein (SARS-CoV-2), P0DTC2
Assay: cell-based or functional assay

B1: Bf APC/B3E (peptide)
peptide: DISQINASVVNIEYEIXKLEEVAXKLEESLIDLQELGSGSGC
modifications: not fully specified (C-terminus); also: α/β-peptide, β-residue positions not given here
  inhibition of S-mediated cell-cell fusion (β-Gal complementation), IC50: 50 nM
